In series [1] the test system is T1, C[N+](C)(C)C[C@H](O)CC(=O)O.
T1 construct: full-length with C-terminal 6His tag (pET21a), expressed in E. coli JW0039 (delta caiT), Ni-NTA purified; homotrimer (D288A and D288R mostly monomeric); DDM-solubilized or in proteoliposomes
In words: purified protein. The class given is biochemical, Escherichia coli. The note with it: labelled compound, proteoliposomes preloaded with 10 mM L-carnitine, potassium phosphate pH 7.5, 25 °C.

Another series concerns the target CaiT-R299A (E. coli) (UniProt P31553). In words: native gel or EMSA; blue native PAGE, 4–16.5% gradient gel, 5 µg purified protein per lane, in detergent solution.
The next series deals with CaiT-M295E (E. coli) (UniProt P31553). The series is described as above.

This passage reports Km, Vmax and percent of the protein in the monomeric state results from PMC6406002, “Comparison of the functional properties of trimeric and monomeric CaiT of Escherichia coli” (Scientific Reports, 2019).

A value given as a limit tells only on which side of the number the result lay.

Broadly, the Km is the substrate concentration at which the rate is half of its maximum. In general, Vmax refers to the rate approached at saturating substrate. For the substance CaiT (Escherichia coli K-12; D288A), in series [1] (mostly monomeric variant), the Km is on record as 114.1 ± 17.9 µM and the Vmax was determined as 1.86 µmol/min/mg.

In the case of “CaiT-R299A (from UniProt P31553 1-504) (natural protein)”, the percent of the protein in the monomeric state with CaiT-R299A (E. coli) was above 80%.

In the case of “CaiT-M295E (from UniProt P31553 1-504) (natural protein)”, the percent of the protein in the monomeric state in the series with CaiT-M295E (E. coli) was above 80%.

For the substance CaiT (Escherichia coli K-12), in series [1], the Km is given as 45.3 ± 6.9 µM and the maximal velocity (Vmax) worked out at 2.13 µmol/min/mg.
